Results as given in the DeepSol protein solubility set.

Test: soluble on expression in E. coli; label from the status in PepcDB or PDB records

Row | Sequence | soluble on expression in E. coli
1 | MVVQVQPVEVDVESLVTRVFLKAIDLLGGLHKLAEYRTLTWLPSLARAAFVIVYREEFLKTEEEIAELVGLTRQTVRNILRADPELALYKIQHIDELTKEEKKELRVHTAGGIAKLAYKKVKEGEEPKVFLEFCTMAAEALEVPWAYLLLKKIKGTHFPINSPEELKEKVKGVVIKGMPAEEVVEKIEYPVKNPADLLHKIKIHLKMMGVE | soluble
2 | MGSDKIHHHHHHMNTSGWGKYPEIEAQVLTPSSEKALQDLIGTGSYDGVTPRGLGRSYGDSSLGKLMVKTLRLNHMLSFELQSGLLHCQSGVSLAEILEVFVPRGWFLPVTPGTKLVTVGGAIASDIHGKNHHIDGCFCDHVDFLDLLTGSGEIIRCSPHEQAQLFHATCGGMGLTGIILSAAIRLTPIKSAYIDQVTFKSANLGESFELFEKQAEQPYSVAWIDCISSGDKLGRSLLMTGKHAQHGALAAHHNPGLSVPLDLPSFILNPYSIKAFNTLYYHKARQRETHATVHYDPFFYPLDGIGHWNRMYGKNGFTQYQFVIPKEAGLQAMDLILRTIVNSKKGSFLAVLKAFGKENRNLLSFPMEGYTLALDFKIEPDLFPLLDRLDAMVLDHGGRLYLTKDARMNAETFRKCYPKWEQFQNIRQQYGARHTFLSMQSQRLGLD | not soluble
3 | MKLPKEGDFITIQSYKHDGRLHRTWRDTMVLKTTENAVIGVNDHTLVTEADGRRWVTREPAIVYFHKKYWFNIIAMIRDNGISYYCNLASPYVLDQEALKYIDYDLDVKVFADGEKKLLDVDEYEIHKKEMHYSPDIDYILKEHVKILVDWINNGKGPFSQSYVNIWYKRYLELRNR | not soluble
4 | MGSDKIHHHHHHMDVLRCENLKKRFGRRYVVNGVNLEFHRGEIVGLLGPNGAGKTTIFNMILGVVVPTSGKIIFRDVDITKFPVYRRARLGITYLQQETSIFGGLTVRENIDLVLRFHEKDKEKRERKIEELLHEFHLKHLENQPASFLSGGEKRKLELARMMCLNPAFILLDEPFSGIDPKTVKEIQKMTLELKQKNFGIVITDHNVDELVEIADRIYVIYKGEILAEGSPERILEDETVREVYLGT | not soluble
5 | MLGPVLRLVVKAGKERKLRNFYPNLYRDEIAAPPEGVGVAEAVDAEGHFLAVGYYDPRSRVPFRAFRFDPGPLNRAFFQGRFARALRRRQGLGESHRLVHGEADGLPGLVVDRFGEVLVLQVRSRGMEALREVWLPALLEVVAPKGVYERSDVEARRQEGLPERVGVVYGEVPEVLEVEEDGLRFPIPLALAQKTGYYLDQRENRRLFEAMVRPGERVLDVYSYVGGFALRAARKGAYALAVDKDLEALGVLDQAALRLGLRVDIRHGEALPTLRGLEGPFHHVLLDPPTLVKRPEELPAMKRHLVDLVREALRLLAEEGFLWLSSCSYHLRLEDLLEVARRAAADLGRRLRVHRVTYQPEDHPWSLHIPESLYLKTLVLQDDPL | soluble
6 | MIVTTTSGIQGKEIIEYIDIVNGEAIMGANIVRDLFASVRDVVGGRAGSYESKLKEARDIAMDEMKELAKQKGANAIVGVDVDYEVVRDGMLMVAVSGTAVRI | soluble
7 | MTELPLQFAEPDDDLERVRATLYSLDPDGDRTAGVLRDTLDQLYDGQRTGRWNFDQLHKTEKTHMGTLVEINLHREFQFGDGFETDYEIAGVQVDCKFSMSQGAWMLPPESIGHICLVIWASDQQCAWTAGLVKVIPQFLGTANRDLKRRLTPEGRAQVVKLWPDHGKLQENLLLHIPGDVRDQIFSAKSSRGNQHGQARVNELFRRVHGRLIGRAVIATVAQQDDFMKRVRGSGGARSILRPEGIIILGHQDNDPKVANDLGLPVPRKGQVVAARVVPADEGDQRQTAEIQGRRWAVAVPGDPIVEAPVVPRKSAE | soluble
8 | NKDWTLAIRGNITYNKDKWIEGELPEQRYDWMNQYGQNILGKKGYIAEGLFTQAEIDDMARWESLSQANKATTPKPFASQFGTVKAGDIKYKDLNNDGQIDAYDKTYICRGDVPTMVYGFGFTLGWKNLSLGMMFQGTHDAERIMSGSSIQPFNGGGGSGNLYSNIDDRWTEDNPNQNAFYPRLSYGAETSSNINNFQPSTWWVRDFSFLRLKTMQISYNLPKDWVNKVRLKNAAVYVMGTNLFTLSKFKLWDPELNTDNGASYPNTTSYSVGVNFTF | not soluble
9 | MGSDKIHHHHHHMQSIMPEADYSFLSMDPTMNANTGNKDSLATPSHTPQLQAFCDVVESRRSVRRFTDAPIPDDVLADCLRLAMLAPNSSNLQPWEFYVIDDADKRKRAVKNCMNQNAAKTSARLIAVVARTDVWHDHAKKILREYPDMPVPKKVKDYYNKVVALDFLRGPANVVSVAKWSAIQVVRRIKGPIKSPYYTFEDTKNWATNNTALAAGNLMLALRAHGFDSCPMGGFDEPAMKRLLKLSNHHHIVMMIGAGERADNGVYNTQFRFEQDQFVHYV | not soluble
10 | MSLIESVMTVLVTRPDEQGAELCQLLHQQGIPALHHPLLAISASPQLAALAEDLSSFDIIIAVSQHAVIFSDQFLQHRRICWPNNAIYLAVGQKTAHVFSKACQQSVDYPEISDSEHLLALSMLRDVAGKKVLILRGNGGRELIYSTLVERGATVRYQEAYCRHERPFAAAECVQKWQLAKVDSLVITSSEQLAFFIRQFETSHLPWVQQLTLLVPSQRIATLAHQLGFHRIVVTLSAANRDLVAALMPEKPTGTLSNDQQQEGHHHHHH | soluble
11 | MSLRSGVEMAQRFARYPGAVANAARLGAACAFDVRLIAPRLPDFPVPPGHTEMSYLRELAMRGAAEKYGPPHQRPDVYRQLDYELDVIEQLGFPGYFLVVWEIVEFCRSRGILCQGRGSAANSVVCYVLGITKADPIAFRLLFERFLSPERDGPPDIDVDIESGRREEVIQYVYSRYGRERAAQVATVITYRPRSAVRDMARALGYSPGQQDAWSKQLDRYGEIPRGSEADHDVPDDVVHLARQVLGFPRHLGIHSGGMVICDRPVAEVCPVEWARMPGRSVLQWDKDDCARIGVVKFDLLGLGMLSALRECFDLIETYHGVRLSLETIPPEDPAVYDMLCAADSVGVFQVESRAQMATLPRLQPRNFYDLVTEVAIIRPGPIQGGSVHPFIRRRRGREPVRYAHPLLRHSLERTYGVPLFQEQIMQMAIDVAGLTPAEADHLRQAMGAKREGHHHHHH | soluble
12 | MALPLPDPSEQAYSDTLKTMLHERIAHSGGWISFADYMETVLYTPETGYYSGGAAKFGTAGDFVTAPEISPLFGQALARQIAPILSAVNQGSILEFGAGSGKLAVDLLCALEELNNLPQHYYILDLSADLQQRQRAMIEQHIPHLASRVSWLSALPEQFEGLILANEVLDAMPVHLVAWQNGNIAERGVIWKDQGPVWQDQPLAAGELLDVARQLPPADQFSYPLYISEISLTNRHFICSLAMLLQRGAILLVDYGFGQNEYYHPQRHQGTLMCHYRHHAHDDPFFLPGLQDITSHVDFSTIARTALDSGLQLAGYTTQAHFLINCGITDLLARTPADQPGSYLPLVSQVQRLVSPAEMGELFKVMVLSRDIDIDAASCGFTRGDLRRLLLEHHHHHH | not soluble
13 | MSLQSYADALSAKGYRSFGFDTDMEMDMDMGCTTMRRIEKRKGGDLADSPVDEKAEADVEVTNEISAPYEVPQFPIEQIEKKLQIQRHLNEKQATGPRPVATAAVLATNRESSSSTEGRESAVTMERNDADINFQRVSISGEDTSGVPLEDLERASTLLIEALRLRSHYMAMSDQSFPSTTARFLKTVKLKDRINNLPVKEVSESADVHLRHSPMKITNPWNVEFPNDEDFKIKPLNGVFHIYENDDESSEIKYEYPDMSQFVNDMQVMCNMIADGPLKSFCYRRLCYLSSKYQMHVLLNELRELAAQKAVPHRDFYNTRKVDTHIHAASCMNQKHLLRFIKKTLKNNANEVVTVTNGQQMTLAQVFQSMNLTTYDLTVDMLDVHADRNTFHRFDKFNSKYNPIGESRLREVFLKTDNYLNGKYFAQIIKEVAFDLEESKYQNAELRLSIYGKSPDEWYKLAKWAIDNDVYSSNIRWLIQIPRLFDIFKSNKMMKSFQEILNNIFLPLFEATARPSKHPELHRFLQYVIGFDSVDDESKPENPLFDNDVPRPEEWTYEENPPYAYYIYYMYANMTVLNKFRQSRNMNTFVLRPHCGEAGPVQHLVCGFLMAENISHGLLLRKVPVLQYLYYLTQIGIAMSPLSNNSLFLNYHRNPLPEYLARGLIISLSTDDPLQFHFTKEPLMEEYSIAAQVWKLSSCDMCELARNSVMMSGFPHAIKQQWLGPIYYEDGIMGNDITRTNVPEIRVAYRYETLLDELSNIFKVNQTCSIADMNATEGHHHHHH | soluble
14 | MSTSTLQSEQSMEIITPPADIGTRTLVDKAAQFVSKKGLEFETKIIDSYPTDAKFNFLRSTADPCHTYYKHKLAEYSSQNQDGATDESDIKIFHAPPNVTTTAIVETTSCLVSQFGSEFEMMVKDSNTDDARFNFLKSSEDPYNVLYKQKLDEYSLDPRDAYYQHKLAESISKYHREATPKLVLPNLLQFRLVKEMTFEELDTVKVTAQFVAWYGDDFRGFLMERVMTEPQFEFMKATDYRFSFYNEFVVAYSQVLNPPKYLKDKLRGRAAYTVIGHLLITMSEEEIS | soluble
15 | MNQLTSSFIQNLAEDNIYKLPPHSIEAEQSVLGGLMLDNQAWDKVADIIIESDFYRQDHQLIYQHISRLIEQNKPADVITVAESLENAAQLQHAGGLAYIGAIAQNTPSAANIRRYAEIVRERSIMRKL | not soluble
16 | DKCKKVYENYPVSKCQLANQCNYDCKLDKHARSGECFYDEKRNLQCICDYCEY | soluble
17 | MAHHHHHHMLTDNQNCLEMERSDKRVTVALINTRSGERTAAEFVRKQMETHLGEENVFYLFPSGKPAIAEAKKFLERHNPAVVIVAGGDGTVSLALDITDGLRRTNMLSATSAYVAVLPMGTGNDLSRTLGFGGGYVKPLLNPEKKFKRLLDRLAHAKGIKMDRWSVQIQKKSTLTVASTGEDAHAGDSSRTYGVDDVHVVEKTMMNYFSIGFDATIVRQFNDFRNDHPTMCSQRSLNKLWYGCFGCGSMCNSVALPRKQMKLTVDDKCVAIPPGTKALLVTNVKTYAGGAVLWKDNRCRFAKPDVGDGLLEVTALYGVWHFAGVRMGIRKAMKVAQGNCIRIETPAYFAMQLDGEPVDELACGEEMIDVSITFFSRTLVMTCEGS | not soluble
18 | MKLILNTPGLYLCKRGECFQIQSENEKREIAATKVDQIMITTHAALTTDAIELALEYNIDIIFLKNTGQPMGRVWHSKLGSISTIRRKQLFLQDSPLGLQLVKEWILEKMDNQIRLLKKLEVNRRDDEKRAIIRDTIEKIEKQKANIMSINNKETVNNVRNMLLGYEGTAGRVYFETLGKLIPEKYAFEARSRNPAKDPFNCMLNYSYGILYSSVEKACIIAGLDPYIGIMHTDNYNKKALVYDMVEMYRGYMDEIVFRLFSTKKVQDDFFDKIEDGYYLNKEGKQLLISEYNKELEVKMNYRGRRIEFANIIQYDCHQIANRILKEDIPC | soluble
19 | MGQSTSKVPPSSPPNEPKFVQNTPISSPGFGRAQTMLDVSQLAAAAATLDAPTLQRSSSDTALNTSMTTTTVTQTACQKSYQQALEWGRNEQFLKLAHTFHTNNY | not soluble
20 | MKLGVIAAMDLELQKLLEYFPPQRKIQLAKNTFYIYEQKTSQVIMVCAGQGKTNATLYSQILIDSFQIEQLINIGICGCLNEKLQLFEMVLGEEYCHYDIRERQSINKFPYQLYYKGDKGMLAELQHLDEKIKCVRFGTGEGFVCDTTEKRNLIEQFSIDCVDMESAAIAQCCFLNDCAFVSIRIICDRADANAVKVTEDTQTQAMEKVFELVCAYIN | not soluble
